# B1: MIP-2/CXCL2 (murine macrophage inflammatory protein-2) (natural protein, UniProt P10889 28-100, looked up)
# chain: AVVASELRCQCLKTLPRVDFKNIQSLSVTPPGPHCAQTEVIATLKGGQKVCLDPEAPLVQKIIQKILNKGKAN
# Target: the molecule itself
# Assay: crystal structure
protein,measurement,value
B1,stoichiometry N,2
